In test [1] the target is T1, GPC3 (UniProt P51654 25-559, limits assumed).
T1 construct: also called antigen GPC3; Glypican 3
Kind of test: SPR (Biacore T200); scFv-Fc captured by anti-human Fc pAb, GPC3 10-320 nM in flow. An excerpt:
(§1) The humanized VLs (VL1 and VL1.M2) were connected to humanized VHs (VH2, VH2.M1, VH2.M5 and VH2.M6) with a (G4S)₃ linker (SEQ ID NO: 10) to construct humanized scFvs. These scFvs were expressed with a C-terminal Fc tag in HEK293 cells. The crude scFv proteins secreted to the cell culture supernatant were used for binding affinity determination using surface plasmon resonance (SPR) on a Biacore T200 machine. Briefly, the scFv protein was captured on the sensor chip pre-coated with goat-anti-human Fc polyclonal antibody (pAb) (Jackson ImmunoResearch, cat #109-005-098) via the interaction between pAb and the Fc tag, then the antigen GPC3 concentration ranging from 10 nM to 320 nM flowed through the sensor chip. After 100 s of association, running buffer (10 mM HEPES, 150 mM NaCl, 3 mM EDTA, 0.005% Tween-20, pH 7.4) flowed through the sensor chip to allow the scFv-GPC3 complex to dissociation. The sensor chip was regenerated using 50 mM HCl between cycles.
(SPR reads the build-up and loss of mass on a sensor chip optically.)

Test [2] has as its target T1, GPC3. The experiment in a line: SPR as in Example 1 (Biacore T200; scFv-Fc captured, GPC3 in flow).
Text: as §1
To further improve the humanization of anti-GPC3 scFvs, additional amino acid residues in VH1 and VL1 were mutated to their human germline counterparts. In HCDR2 of VH2.M6, mutations K54S, T55G or both were introduced, yielding VH2.M8 (SEQ ID NO: 11), VH2.M9 (SEQ ID NO: 12) and VH2.M10 (SEQ ID NO: 13) sequences, respectively. Mutation D57S was introduced to VH2.M6, yielding VH2.M11 sequence (SEQ ID NO: 14). All three additional mutations was introduced to VH2.M6, yielding VH2.M12 sequence (SEQ ID NO: 15). Similarly for VL1.M2, an additional N35K mutation was introduced to LCDR1, yielding VL1.M3 (SEQ ID NO: 16). Additional S94M, N96G and V99W mutations were introduced to LCDR3 of VL1.M2 individually, yielding VL1.M6 (SEQ ID NO: 17), VL1.M7 (SEQ ID NO: 18) and VL1.M8 (SEQ ID NO: 19) sequences, respectively. Additional S94M mutations was introduced to LCDR3 of VL1, yielding VL1.M9 (SEQ ID NO: 137) sequence. The binding affinity of these humanized variants were again determined using SPR as described in Example 1 (Table 5).

The target of test [3] is T1, GPC3. Kind of test: SPR as in Example 1; reference not named (VH2.M6 or mouse scFv).
Text: as §1
To further improve the humanization of anti-GPC3 scFvs, additional amino acid residues in VH1 and VL1 were mutated to their human germline counterparts. […] The binding affinity of these humanized variants were again determined using SPR as described in Example 1 (Table 5).

The text below walks through data of patent publication US20250297029A1 (NANJING LEGEND BIOTECH, published 2025).

Numbering of substitutions follows the chain as printed.

T1 sequence (P51654 25-559 limits assumed): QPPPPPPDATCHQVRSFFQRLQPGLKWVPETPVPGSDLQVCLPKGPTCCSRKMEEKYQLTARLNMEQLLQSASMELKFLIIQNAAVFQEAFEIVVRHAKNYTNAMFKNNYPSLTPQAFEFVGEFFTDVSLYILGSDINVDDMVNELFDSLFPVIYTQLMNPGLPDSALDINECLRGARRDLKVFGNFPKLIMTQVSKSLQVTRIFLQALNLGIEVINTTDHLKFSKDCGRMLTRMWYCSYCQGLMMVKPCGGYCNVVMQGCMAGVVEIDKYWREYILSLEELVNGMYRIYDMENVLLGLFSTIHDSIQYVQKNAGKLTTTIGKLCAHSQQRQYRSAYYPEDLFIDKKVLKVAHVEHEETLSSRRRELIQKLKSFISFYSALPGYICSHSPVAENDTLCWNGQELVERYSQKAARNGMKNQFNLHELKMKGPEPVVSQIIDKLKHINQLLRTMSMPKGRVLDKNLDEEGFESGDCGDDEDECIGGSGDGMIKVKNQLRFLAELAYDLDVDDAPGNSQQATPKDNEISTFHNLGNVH

B1: mouse anti-GPC3 GC33 scFv (VL-VH) (scFv)
scFv: DVVMTQTPLSLPVSLGDQASISCRSSQSLVHSNGNTYLHWYLQKPGQSPKLLIYKVSNRFSGVPDRFSGSGSGTDFTLKISRVEAEDLGVYFCSQNTHVPPTFGSGTKLEIKGGGGSGGGGSGGGGSQVQLQQSGAELVRPGASVKLSCKASGYTFTDYEMHWVKQTPVHGLKWIGALDPKTGDTAYSQKFKGKATLTADKSSSTAYMELRSLTSEDSAVYYCTRFYSYTYWGQGTLVTVSA
notes: also called mouse scFv; not shown: C-terminal Fc tag (human Fc, used only for capture on the anti-human Fc chip) and any junction to it
One may read the Kd as a measure of binding affinity in units of concentration. A lower Kd goes with higher affinity. What is called koff is the first-order rate constant of dissociation. A word on the kon: it is the rate constant with which the complex forms. In the test with GPC3 [1], B1 had a Kd of 1.8 nM, an off-rate constant (koff) of 0.00023 s⁻¹ and an association rate constant (kon) of 130000 M⁻¹ s⁻¹. In the test with GPC3 [2], this molecule showed a dissociation constant (Kd) of 4 nM, an off-rate (koff) of 0.00021 s⁻¹ and a kon of 51000 M⁻¹ s⁻¹.

B2: VL1.M2-VH2.M6 humanized scFv (scFv, not shown: a dimerising Fc or GST)
scFv: DIVMTQTPLSLSVTPGQPASISCRSSQSLVHSNGNTYLHWYLQKPGQSPQLLIYKVSSRFSGVPDRFSGSGSGTDFTLKISRVEAEDVGVYYCSQNTHVPPTFGQGTKVEIKGGGGSGGGGSGGGGSQVQLVQSGAEVKKPGASVKVSCKASGYTFTSYEMHWVRQAPGQGLEWMGALDPKTGDTAYSQKFQGRVTLTADTSTSTVYMELSSLRSEDTAVYYCTRFYSYTYWGQGTLVTVSS
notes: Crude scFv with Fc tag from HEK293 supernatant
In the test with GPC3 [1], B2 yielded a dissociation constant Kd of 2.7 nM, a koff of 0.0005 s⁻¹ and an association rate constant (kon) of 190000 M⁻¹ s⁻¹. In the test with GPC3 [2], this molecule showed a Kd of 6.8 nM, a dissociation rate constant (koff) of 0.00048 s⁻¹ and a kon of 70000 M⁻¹ s⁻¹.

B3: VL1.M2-VH2.M11 humanized scFv (scFv, not shown: a dimerising Fc or GST)
scFv: B2 scFv with D184S
In the test with GPC3 [2], B3 displayed an equilibrium dissociation constant (Kd) of 13 nM, a koff of 0.00085 s⁻¹ and a kon of 67000 M⁻¹ s⁻¹. Also, in the test with GPC3 [3], the “fold drop in binding affinity” value is less than 4 fold.
